Measurements reported in publication PMC2185068.

Molecular target: Myc-nectin-1-CP (aa 379–518) (human)
Assay: pull-down

stoichiometry N: 1
B1: GST-l-afadin-PDZ (aa 1007–1125) (domain or fragment)
chain: PLRKEPEVITVTLKKQNGMGLSIVAAKGAGQDKLGIYVKSVVKGGAADVDGRLAAGDQLLSVDGRSLVGLSQERAAELMTRTSSVVTLEVAKQGAIYHGLATLLNQPSPMMQRISDRRG
